# Data reported in article PMC6608616 (IUCrJ, 2019).
# B1: Tryptophan synthase β subunit (TrpB) from Francisella tularensis (enzyme)
# chain: MSKLNAYFGEYGGQFVPQILVPALDQLEQEFIKAQADESFKQEFKELLQEYAGRPTALTKTRNIVKNTRTKLYLKREDLLHGGAHKTNQVLGQALLAKRMGKKEIIAETGAGQHGVATALACALLDLKCRVYMGAKDVERQSPNVFRMKLMGAEVIPVHSGSATLKDACNEALRDWSANYSKAHYLLGTAAGPHPFPTIVREFQRMIGEETKQQMLAKEGRLPDAVIACVGGGSNAIGMFADFIDEKNVKLIGVEPAGKGIETGEHGAPLKHGKTGIFFGMKAPLMQNSDGQIEESYSISAGLDFPSVGPQHAHLLAIGRAKYASATDDEALDAFKLLCKKEGIIPALESSHALAHALKLAYEDPNKEQLLVVNLSGRGDKDIFTVHDILKEKGEI
# notes: also called FtTrpB; β subunit of FtTrpAB
# B2: Tryptophan synthase α subunit (TrpA) from Francisella tularensis (enzyme)
# chain: SNAMTNRYTTLFANLEKRNEGAFIPFVTIGDPNKALSFEIIDTLVSSGADALELGIPFSDPLADGPTIQEANIRALESGITPKDCFDILTKIRAKYPHIPIGLLLYANLVYANGIENFYQKCLDAGVDSILIADVPAHESKEFRDIAKKVGIAQIFIAPPDASESTLKQISELGSGYTYLLSRVGVTGTETAANMPVEDVLTKLREYNAPKPVLGFGISKPEQVQQAIKAGAAGAISGSATVKIIQNNISNKQKMLNELTYFVKEMKAATLN
# notes: also called FtTrpA; α subunit of FtTrpAB
# What was measured:
# crystal structure = target: the molecule itself; experiment: crystal structure
# [1] = target: B1; experiment: crystal structure; conditions: both partners purified
Binder,binding result (crystal structure),binding result [1]
B1,binds,–
B2,–,binds
